Laboratory results reported in IntAct's records for PubMed 19074278.

B1: Calcium and calcium/calmodulin-dependent serine/threonine-protein kinase (Lotus japonicus), A0AAR7 (parent)
chain: MGYDQTRKLSDEYEISEILGRGGFSVVRKGTKKSGNEKTQVAIKTLRRLGSSPSGTGGGQKSTATVMGFPSLRQVSVSDALLTNEILVMRRIVENVSPHPNVIDLYDVCEDSNGVHLVLELCSGGELFDRIVAQDKYAETEAAAVVRQIAAGLEAVHKADIVHRDLKPENCLFLDSRKDSPLKIMDFGLSSVEEFTDPVVGLFGSIDYVSPEALSQGKITAKSDMWSLGVILYILLSGYPPFIAQNNRQKQQMIINGNFSFYEKTWKGITQSAKQLISSLLTVDPSKRPSAQELLSHPWVRGDKAKDEQMDPEIVSRLQSFNARRKLRAAAIASVWSSTIFLRTKKLRSLVGTYDLKEEEIESLRIHFKKICGNGDNATLSEFVEVLKAMKMPSLIPLAPRIFDLFDNNRDGTIDMREILCGFSSLKNSKGDDALRLCFQMYDTDRSGCITKEEVASMLCALPEECLPADITEPGKLDEIFDLMDANSDGKVTFEEFKAAMQRDSSLQDMLLSSLRPS
partner: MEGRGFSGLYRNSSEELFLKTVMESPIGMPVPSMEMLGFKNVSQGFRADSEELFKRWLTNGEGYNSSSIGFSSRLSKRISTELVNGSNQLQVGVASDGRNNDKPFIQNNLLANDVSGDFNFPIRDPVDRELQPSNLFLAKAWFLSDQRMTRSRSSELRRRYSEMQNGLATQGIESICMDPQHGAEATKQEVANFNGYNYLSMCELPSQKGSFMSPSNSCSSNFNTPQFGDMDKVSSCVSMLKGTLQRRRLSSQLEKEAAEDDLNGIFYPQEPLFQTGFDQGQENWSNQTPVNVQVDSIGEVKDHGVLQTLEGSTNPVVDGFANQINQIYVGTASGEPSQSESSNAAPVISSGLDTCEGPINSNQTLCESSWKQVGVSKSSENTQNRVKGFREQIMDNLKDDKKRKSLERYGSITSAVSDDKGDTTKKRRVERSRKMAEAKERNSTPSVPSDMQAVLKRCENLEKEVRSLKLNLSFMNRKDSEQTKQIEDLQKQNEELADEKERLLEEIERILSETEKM

Variants of: B1
Conditions: with cclop_lotja CYCLOPS

Variant	effect of a mutation on the interaction
MGYDQTRKLSDEYEISEILGRGGFSVVRKETKKSGNEKTQVAIKTLRRLGSSPSGTGGGQKSTATVMGFPSLRQVSVSDALLTNEILVMRRIVENVSPHPNVIDLYDVCEDSNGVHLVLELCSGGELFDRIVAQDKYAETEAAAVVRQIAAGLEAVHKADIVHRDLKPENCLFLDSRKDSPLKIMDFGLSSVEEFTDPVVGLFGSIDYVSPEALSQGKITAKSDMWSLGVILYILLSGYPPFIAQNNRQKQQMIINGNFSFYEKTWKGITQSAKQLISSLLTVDPSKRPSAQELLSHPWVRGDKAKDEQMDPEIVSRLQSFNARRKLRAAAIASVWSSTIFLRTKKLRSLVGTYDLKEEEIESLRIHFKKICGNGDNATLSEFVEVLKAMKMPSLIPLAPRIFDLFDNNRDGTIDMREILCGFSSLKNSKGDDALRLCFQMYDTDRSGCITKEEVASMLCALPEECLPADITEPGKLDEIFDLMDANSDGKVTFEEFKAAMQRDSSLQDMLLSSLRPS [G30E]	disrupting interaction
MGYDQTRKLSDEYEISEILGRGGFSVVRKGTKKSGNEKTQVAIATLRRLGSSPSGTGGGQKSTATVMGFPSLRQVSVSDALLTNEILVMRRIVENVSPHPNVIDLYDVCEDSNGVHLVLELCSGGELFDRIVAQDKYAETEAAAVVRQIAAGLEAVHKADIVHRDLKPENCLFLDSRKDSPLKIMDFGLSSVEEFTDPVVGLFGSIDYVSPEALSQGKITAKSDMWSLGVILYILLSGYPPFIAQNNRQKQQMIINGNFSFYEKIWKGITQSAKQLISSLLTVDPSKRPSAQELLSHPWVRGDKAKDEQMDPEIVSRLQSFNARRKLRAAAIASVWSSTIFLRTKKLRSLVGTYDLKEEEIESLRIHFKKICGNGDNATLSEFVEVLKAMKMPSLIPLAPRIFDLFDNNRDGTIDMREILCGFSSLKNSKGDDALRLCFQMYDTDRSGCITKEEVASMLCALPEECLPADITEPGKLDEIFDLMDANSDGKVTFEEFKAAMQRDSSLQDMLLSSLRPS [K44A;T265I]	disrupting interaction
MGYDQTRKLSDEYEISEILGRGGFSVVRKGTKKSGNEKTQVAIATLRRLGSSPSGTGGGQKSTATVMGFPSLRQVSVSDALLTNEILVMRRIVENVSPHPNVIDLYDVCEDSNGVHLVLELCSGGELFDRIVAQDKYAETEAAAVVRQIAAGLEAVHKADIVHRDLKPENCLFLDSRKDSPLKIMDFGLSSVEEFTDPVVGLFGSIDYVSPEALSQGKITAKSDMWSLGVILYILLSGYPPFIAQNNRQKQQMIINGNFSFYEKTWKGITQSAKQLISSLLTVDPSKRPSAQELLSHPWVRGDKAKDEQMDPEIVSRLQSFNARRKLRAAAIASVWSSTIFLRTKKLRSLVGTYDLKEEEIESLRIHFKKICGNGDNATLSEFVEVLKAMKMPSLIPLAPRIFDLFDNNRDGTIDMREILCGFSSLKNSKGDDALRLCFQMYDTDRSGCITKEEVASMLCALPEECLPADITEPGKLDEIFDLMDANSDGKVTFEEFKAAMQRDSSLQDMLLSSLRPS [K44A]	disrupting interaction
